Test results as given in patent US20160052997A1 (CELLTRION, published 2016).
Where “and” joins values, the source holds several entries; their conditions need not be identical. Identical values can stand only once. Like-named read-outs stand apart in the source and are kept apart here.

B1: CT104 (antibody, V domains shown)
VH: QVQLVQSGAEVKKPGSSVKVSCKASGGTLNNYAISWVRQAPGQGLEWMGGISPIFGTLNYAERFQGRVTITADVFTNTVYMELSSLRSEDTAVYFCARGCGYNCYYFDGWGQGTLVTVSS
VL: EIVLTQSPGTLSLSPGERATLSCRASQSLSSSSLVWYQQKPGQAPRLLIYGASSRATGIPDRFSGSGSGTDFTLTISRLEPEDFAVYYCQQYGNSPYTFGQGTQVEIKR
B2: CT123 (antibody, V domains shown)
VH: QVQLVESGGGVVQPGRSLRLSCAASGFTFSRFGIHWVRQAPGKGLEWMAVIWYDGSNKFYADSVKGRFTISRDNSKNTVYLQMNSLRAEDTAVYYCAKDSRGYCSSIICFEGGLDNWGQGTLVTVSS
VL: ETVLTQSPGTLSLSPGERATLSCRASQSVSISYLAWYQRKPGQAPRLLIYGASRRATGIPDRFSGSGSGTDFTLTISRLEPEDFAVYYCQQYGSSPYTFGQGTKLEIKR
B3: CT120 (antibody, V domains shown)
VH: QVQLVQSGAEVKMPGSSVKVSCKTSGVFFSSHAISWVRQAPGQGLEWMGGISPMFGTTHYAQKFQGRVTITADQSTTTAYMELTSLTSEDTAVYYCARDGAGSYYPLNWFDPWGQGTLVTVSS
VL: EIVLTQSPATLSLSPGERATLSCRASENIWNNLAWYQQKPGQAPRLLISGASTGATGVPSRFRGSGSRTEFTLTISSLQSEDFAIYFCQQYNSWPRTFGPGTKVEIKR
B4: CT149 (antibody, V domains shown)
VH: QVQLVQSGAEVKKPGASVKVSCKTSGYSFSTYGVSWVRQAPGQGPEWVGWISAYTGITDYAQKFQGRVTLTTDATTATAFLDLRSLRPDDTATYFCARDKVQGRVEVGSGGRHDYWGQGTLVIVSS
VL: EVVLTQSPGTLALPPGERATLSCRASHRVGSTYIAWYQQKSGQAPRRLIYGASNRATDIPDRFSGSGSGTDFTLTIRRLEPEDSAVYYCQQFSVSPWTFGQGTRVEIKR

Tests used:
[1] = target: T1, HA of A/Texas/05/2009 (H1N1) virus (Influenza A virus A/Texas/05/2009 (H1N1)); test: cell-based or functional assay
[2] = target: T2, HA of A/New York/18/2009 (H1N1) virus (Influenza A virus A/New York/18/2009 …); test: cell-based or functional assay
[3] = target: T3, HA of A/Solomon Islands/2006 (H1N1) virus (Influenza A virus A/Solomon …); test: cell-based or functional assay
[4] = target: T4, HA of A/Ohio/83 (H1N1) virus (Influenza A virus A/Ohio/83 (H1N1)); test: cell-based or functional assay
[5] = target: T5, purified recombinant HA protein of H1N1 (A/Solomon Island/03/06) (Influenza A virus A/Solomon …)
[6] = target: T1, HA of A/Texas/05/2009 (H1N1) virus; test: cell-based or functional assay; remark: listed apart in the source
[7] = target: T2, HA of A/New York/18/2009 (H1N1) virus; test: cell-based or functional assay; remark: listed apart in the source
[8] = target: T3, HA of A/Solomon Islands/2006 (H1N1) …; test: cell-based or functional assay; remark: listed apart in the source
[9] = target: T4, HA of A/Ohio/83 (H1N1) virus; test: cell-based or functional assay; remark: listed apart in the source
[10] = target: T6, HA of A/Ohio/07/2009 (H1N1) virus (Influenza A virus A/Ohio/07/2009 (H1N1)); test: cell-based or functional assay
[11] = target: T7, HA of A/Ann Arbor/6/60 ca (H2N2) virus (Influenza A virus A/Ann Arbor/6/60 ca …); test: cell-based or functional assay
[12] = target: T8, HA of Anhui/1/05 (H5N1) virus (Influenza A virus A/Anhui/1/05 (H5N1)); test: cell-based or functional assay
[13] = target: T9, HA of A/ck/HK/G9/97 (H9N2) virus (Influenza A virus A/ck/HK/G9/97 (H9N2)); test: cell-based or functional assay
[14] = target: HA of A/Green-winged teal/209/TX/2009 (H9N2) virus (Influenza A virus A/Green-winged …); test: cell-based or functional assay
[15] = target: T10, HA of A/Wisconsin/67/05 (H3N2) virus (Influenza A virus A/Wisconsin/67/05 …); test: cell-based or functional assay
[16] = target: T11, HA of A/Brisbane/10/07 (H3N2) virus (Influenza A virus A/Brisbane/10/07 …); test: cell-based or functional assay
[17] = target: HA of A/turkeyNirginia/02 (H7N2) virus (Influenza A virus A/turkey/Virginia/02 …); test: cell-based or functional assay
[18] = target: T1, HA of A/Texas/05/2009 (H1N1) virus; test: cell-based or functional assay; remark: listed apart in the source
[19] = target: T3, HA of A/Solomon Islands/2006 (H1N1) …; test: cell-based or functional assay; remark: listed apart in the source
[20] = target: T4, HA of A/Ohio/83 (H1N1) virus; test: cell-based or functional assay; remark: listed apart in the source
[21] = target: T6, HA of A/Ohio/07/2009 (H1N1) virus; test: cell-based or functional assay; remark: listed apart in the source
[22] = target: T7, HA of A/Ann Arbor/6/60 ca (H2N2) virus; test: cell-based or functional assay; remark: listed apart in the source
[23] = target: T8, HA of Anhui/1/05 (H5N1) virus; test: cell-based or functional assay; remark: listed apart in the source
[24] = target: T9, HA of A/ck/HK/G9/97 (H9N2) virus; test: cell-based or functional assay; remark: listed apart in the source
[25] = target: HA of A/PuertoRico/8/34 (H1N1) virus (Influenza A virus A/PuertoRico/8/34 …, UniProt P03452 18-565); test: cell-based or functional assay
[26] = target: T5, purified recombinant HA protein of H1N1 …; test: SPR, Biacore T200, HA captured via anti-6x his tag antibody, 25 C
[27] = target: T10, HA of A/Wisconsin/67/05 (H3N2) virus; test: cell-based or functional assay; remark: listed apart in the source
[28] = target: T12, HA of A/Hong Kong/68 (H3N2) virus (Influenza A virus A/Hong Kong/68 (H3N2)); test: cell-based or functional assay
[29] = target: T11, HA of A/Brisbane/10/07 (H3N2) virus; test: cell-based or functional assay; remark: listed apart in the source
[30] = target: T12, HA of A/Hong Kong/68 (H3N2) virus; test: cell-based or functional assay; remark: listed apart in the source
[31] = target: HA of A/Sydney/5/97 (H3N2) virus (Influenza A virus A/Sydney/5/97 (H3N2)); test: cell-based or functional assay
[32] = target: HA of A/Beijing/32/92-R-H3N2 PR8 virus (Influenza A virus A/Beijing/32/92 (H3N2)); test: cell-based or functional assay
[33] = target: HA of A/Perth/16/09 (H3N2) virus (Influenza A virus A/Perth/16/09 (H3N2)); test: cell-based or functional assay
[34] = target: HA of A/Anhui/1/2013 (H7N9) virus (Influenza A virus A/Anhui/1/2013 (H7N9)); test: cell-based or functional assay
[35] = target: HA of A/Shanghai/2/2013 (H7N9) virus (Influenza A virus A/Shanghai/2/2013 …); test: cell-based or functional assay

Binder	MN test: lowest antibody concentration at which no virus antigen was detected [1] [µg/mL]	MN test: lowest antibody concentration at which no virus antigen was detected [2] [µg/mL]	MN test: lowest antibody concentration at which no virus antigen was detected [3] [µg/mL]	MN test: lowest antibody concentration at which no virus antigen was detected [4] [µg/mL]	Kd [5] [nM]	MN test: lowest antibody concentration at which no virus antigen was detected [6] [µg/mL]	MN test: lowest antibody concentration at which no virus antigen was detected [7] [µg/mL]	MN test: lowest antibody concentration at which no virus antigen was detected [8] [µg/mL]	MN test: lowest antibody concentration at which no virus antigen was detected [9] [µg/mL]	MN test: lowest antibody concentration at which no virus antigen was detected [10] [µg/mL]	MN test: lowest antibody concentration at which no virus antigen was detected [11] [µg/mL]	MN test: lowest antibody concentration at which no virus antigen was detected [12] [µg/mL]	MN test: lowest antibody concentration at which no virus antigen was detected [13] [µg/mL]	MN test: lowest antibody concentration at which no virus antigen was detected [14] [µg/mL]	MN test: lowest antibody concentration at which no virus antigen was detected [15] [µg/mL]	MN test: lowest antibody concentration at which no virus antigen was detected [16] [µg/mL]	MN test: lowest antibody concentration at which no virus antigen was detected [17] [µg/mL]	EC50, microneutralization test [23] [µg/mL]	EC50, microneutralization test [24] [µg/mL]	Kd [26]	also measured
B1	0.313	0.625	0.625	0.313	–	–	–	–	–	–	–	–	–	–	–	–	–	–	–	–	–
B2	0.313	0.625	1.25	0.313	–	–	–	–	–	–	–	–	–	–	–	–	–	–	–	–	–
B3	0.313	0.313	0.625	0.156	2.82	0.156	0.313	0.625	0.156	0.039	0.312	0.625	0.078	0.625	> 10	> 20	> 20	6.92	3.12	2.79 nM and 2.85 nM	EC50, microneutralization test [18]: 1.19 µg/mL; EC50, microneutralization test [19]: 0.25 µg/mL; EC50, microneutralization test [20]: 0.26 µg/mL; EC50, microneutralization test [21]: 0.14 µg/mL; EC50, microneutralization test [22]: 6.53 µg/mL; EC50, microneutralization test [25]: 0.33 µg/mL; koff [26]: 0.000684 s⁻¹ and 0.000703 s⁻¹; kon [26]: 245000 M⁻¹ s⁻¹ and 246000 M⁻¹ s⁻¹
B4	–	–	–	–	345	> 10	> 10	> 10	> 10	5	> 10	0.625	0.312	0.156	1.25	1.25	10	11	7.39	368 nM and 323 nM	MN test: lowest antibody concentration at which no virus antigen was detected [27]: 1.25 µg/mL; MN test: lowest antibody concentration at which no virus antigen was detected [28]: 2.5 µg/mL; MN test: lowest antibody concentration at which no virus antigen was detected [29]: 1.25 µg/mL; MN test: lowest antibody concentration at which no virus antigen was detected [30]: 2.5 µg/mL; EC50, microneutralization test [31]: 2.93 µg/mL; EC50, microneutralization test [32]: 1.36 µg/mL; EC50, microneutralization test [33]: 2.06 µg/mL; EC50, microneutralization test (Contract Lab A) [34]: 0.9 µg/mL; EC50, microneutralization test (Contract Lab A) [35]: 1.17 µg/mL; EC50, microneutralization test (Contract Lab B) [35]: 7.71 µg/mL; koff [26]: 0.0904 s⁻¹ and 0.105 s⁻¹; kon [26]: 246000 M⁻¹ s⁻¹ and 324000 M⁻¹ s⁻¹
